The record followed here is patent US20220048991A1 (BIOND BIOLOGICS, published 2022).

Assay [1] addresses T1, recombinant ILT2 (human) (human, UniProt Q8NHL6 24-461).
T1 construct: also called recombinant ILT2 peptide; ILT2 protein
The experiment in a line: SPR (Biacore T200); KD relative to Control (chimeric 15G8). The procedure:
(§1) During grafting of the 15G8 CDRs, five heavy chains and four kappa light chains were generated. These chains were designated VH1-5 and Vk1-4. By combining each heavy chain with each light chain twenty different resultant antibodies are possible. All twenty possible antibodies were transiently expressed in HEK EBNA cells, and the supernatants were tested for binding to recombinant ILT2 peptide using a Biacore T200. The chimeric 15G8 antibody was used as control.

For assay [2], the target named is T1, recombinant ILT2 (human). Kind of assay: SPR (Biacore T200), HEK EBNA supernatants on recombinant ILT2 peptide. The method, then: as §1
The target of assay [3] is T2, PIRB (UniProt P97484 25-642, limits assumed).
T2 sequence (looked up): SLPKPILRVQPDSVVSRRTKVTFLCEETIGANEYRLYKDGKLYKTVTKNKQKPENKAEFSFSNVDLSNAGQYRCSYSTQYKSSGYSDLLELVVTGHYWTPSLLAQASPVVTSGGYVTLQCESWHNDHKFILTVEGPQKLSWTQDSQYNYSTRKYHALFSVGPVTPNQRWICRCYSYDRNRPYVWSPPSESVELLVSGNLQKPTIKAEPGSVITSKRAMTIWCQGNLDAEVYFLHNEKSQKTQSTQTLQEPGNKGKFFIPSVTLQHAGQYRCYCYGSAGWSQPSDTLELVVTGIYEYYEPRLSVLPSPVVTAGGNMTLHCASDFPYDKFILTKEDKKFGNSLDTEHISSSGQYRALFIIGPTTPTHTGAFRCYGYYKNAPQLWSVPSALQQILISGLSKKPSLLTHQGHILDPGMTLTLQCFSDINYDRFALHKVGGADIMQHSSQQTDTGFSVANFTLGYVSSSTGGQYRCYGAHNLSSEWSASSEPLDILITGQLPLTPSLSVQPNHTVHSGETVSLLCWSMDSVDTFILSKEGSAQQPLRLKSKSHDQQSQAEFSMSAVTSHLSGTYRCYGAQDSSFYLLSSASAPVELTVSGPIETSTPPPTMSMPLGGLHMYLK
Kind of assay: binding ELISA, column PIRB.

Assay [4] deals with T1, recombinant ILT2 (human). Kind of assay: binding ELISA, hILT2-Fc.
Assay [5] addresses ILT6 (UniProt Q8N6C8 24-439, limits assumed). The experiment in a line: binding ELISA, column hILT6-His.
Assay [6] concerns the target LILRA1 (UniProt O75019 17-461, limits assumed). Kind of assay: binding ELISA, column hLILRA1-His.
Assay [7] concerns the target T3, biotinylated recombinant human ILT2-Fc (human, UniProt Q8NHL6 24-458, limits assumed, conjugated with biotin (sites not given)).
T3 construct: Bought (Sino Biologics); the order of the parts is therefore uncertain; also called ILT2-biotin; biotinylated ILT2; not shown: Fc portion of human IgG1
Kind of assay: flow cytometry blocking assay: ILT2-biotin binding to cells expressing HLA-G [right panel]. The procedure:
Flow cytometry blocking assay—Recombinant human ILT2 protein fused with the Fc portion of human IgG1 at the N terminal was conjugated with biotin (Innova bioscience). A total of 5×10⁵ A375/HLA-G1 cells were incubated in a volume of 100 μL in the presence of anti-ILT2 clone #1 or isotype matched control mAb and ILT2-Fc conjugated with biotin (10 μg/mL) for 30 minutes at room temperature. After several washing steps, streptavidin-PE was added at a final concentration of 0.2 μg/mL and incubated for 30 min on ice followed by FACS analysis.
The ability of the generated anti-ILT2 antibodies to block the interaction between HLA-G and ILT2 was tested using four different assays. First, a blocking flow cytometry assay was performed. HLA-G transfected A375 cells were incubated with biotinylated ILT2 in the presence of the antibodies of the present disclosure and a positive control antibody. The commercially available anti-ILT2 antibody GHI/75 (BioLegend, Cat. No. 333704) was used as the positive control. The binding of ILT2-biotin to the cells was determined using Streptavidin-PE by flow cytometry analysis (FIG. 8A). The percent of blocking was determined by normalizing to a negative control (ILT2 binding in the presence of control IgG). […] The percentage of blocking was calculated at various concentrations of antibody (FIG. 8C).

T1 sequence (Q8NHL6 24-461 limits assumed): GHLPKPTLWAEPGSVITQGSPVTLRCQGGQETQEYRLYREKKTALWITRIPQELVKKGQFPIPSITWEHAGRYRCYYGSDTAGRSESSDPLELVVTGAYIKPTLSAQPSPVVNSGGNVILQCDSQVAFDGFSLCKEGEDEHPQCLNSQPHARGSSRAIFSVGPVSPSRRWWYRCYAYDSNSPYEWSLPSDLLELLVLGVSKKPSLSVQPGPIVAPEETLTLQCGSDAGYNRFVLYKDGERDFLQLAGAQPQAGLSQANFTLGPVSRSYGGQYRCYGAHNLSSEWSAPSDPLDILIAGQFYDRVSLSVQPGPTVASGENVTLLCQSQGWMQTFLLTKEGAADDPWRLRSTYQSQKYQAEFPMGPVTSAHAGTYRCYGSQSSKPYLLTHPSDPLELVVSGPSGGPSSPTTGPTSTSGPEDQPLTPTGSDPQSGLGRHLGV
LILRA1, sequence (O75019 17-461 limits assumed): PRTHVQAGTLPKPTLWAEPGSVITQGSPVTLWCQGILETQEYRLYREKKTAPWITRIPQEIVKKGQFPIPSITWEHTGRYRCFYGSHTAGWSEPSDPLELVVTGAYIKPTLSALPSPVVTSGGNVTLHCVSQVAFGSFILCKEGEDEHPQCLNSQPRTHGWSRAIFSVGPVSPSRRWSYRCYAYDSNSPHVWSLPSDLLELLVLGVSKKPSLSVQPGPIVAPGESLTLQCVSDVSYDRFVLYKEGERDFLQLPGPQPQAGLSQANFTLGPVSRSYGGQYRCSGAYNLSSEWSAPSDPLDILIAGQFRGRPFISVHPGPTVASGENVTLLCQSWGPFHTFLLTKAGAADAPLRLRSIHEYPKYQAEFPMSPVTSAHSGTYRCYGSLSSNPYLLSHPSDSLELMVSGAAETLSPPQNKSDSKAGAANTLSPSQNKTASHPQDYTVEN
ILT6, sequence (Q8N6C8 24-439 limits assumed): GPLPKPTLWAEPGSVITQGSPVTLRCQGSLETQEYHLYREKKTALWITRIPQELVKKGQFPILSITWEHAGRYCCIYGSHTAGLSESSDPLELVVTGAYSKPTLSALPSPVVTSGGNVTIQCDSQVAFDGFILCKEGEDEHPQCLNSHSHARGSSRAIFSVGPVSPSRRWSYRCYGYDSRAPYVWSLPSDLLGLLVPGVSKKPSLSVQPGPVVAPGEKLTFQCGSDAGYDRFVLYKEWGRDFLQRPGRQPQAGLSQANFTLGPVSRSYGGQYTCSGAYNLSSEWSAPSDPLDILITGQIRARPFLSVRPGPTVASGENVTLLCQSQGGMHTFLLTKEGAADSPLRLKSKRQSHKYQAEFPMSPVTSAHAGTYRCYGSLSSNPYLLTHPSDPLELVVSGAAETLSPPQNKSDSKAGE
T3 sequence (Q8NHL6 24-458 limits assumed): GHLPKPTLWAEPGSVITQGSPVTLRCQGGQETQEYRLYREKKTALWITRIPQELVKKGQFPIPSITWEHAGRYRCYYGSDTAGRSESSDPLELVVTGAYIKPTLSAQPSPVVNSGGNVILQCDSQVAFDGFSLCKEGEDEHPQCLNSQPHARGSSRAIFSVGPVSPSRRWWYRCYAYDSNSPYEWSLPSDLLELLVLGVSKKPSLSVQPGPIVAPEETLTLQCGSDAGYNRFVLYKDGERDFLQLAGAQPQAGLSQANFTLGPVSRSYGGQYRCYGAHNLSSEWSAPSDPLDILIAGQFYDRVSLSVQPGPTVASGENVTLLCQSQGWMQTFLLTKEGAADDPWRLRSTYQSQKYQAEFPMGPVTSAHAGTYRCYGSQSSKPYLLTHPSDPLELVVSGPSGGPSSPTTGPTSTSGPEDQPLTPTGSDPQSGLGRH

B1: humanized 15G8 VH2/Vk4 (antibody, IgG4, V domains shown)
VH: DVQLQGSGPGLVKPSETLSLTCSVTGYSITSGYYWNWIRQFPGKKLEWMGYISYDGSNNYNPSLKNRITISRDTSKNQFSLKLSSVTAADTATYYCAHGYSYYYAMDAWGQGTTVTVSS
VL: DIQMTQSPSSLSASVGDRVTITCRTSQDISNYLNWYQQKPGKAPKLLISYTSRLHSGVPSRFSGSGSGTDYTLTISSLQPEDFATYFCQQGNTLPTFGQGTKLEIK
notes: Humanized IgG4 (S228P, L235E), kappa; tested as supernatant of transiently transfected HEK EBNA cells
Regarding B1, in assay [1], the “Relative KD” value is 1.13. Moreover, in assay [2], the Kd turned out to be 14.2 nM, the koff turned out to be 0.00789 s⁻¹ and the kon was found to be 554000 M⁻¹ s⁻¹.

B2: humanized 15G8 VH3/Vk1 (antibody, IgG4, V domains shown)
VH: DVQLQGSGPGLVKPSETLSLTCSVTGYSITSGYYWNWIRQPPGKGLEWMGYISYDGSNNYNPSLKNRITISRDTSKNQFSLKLSSVTAADTATYYCAHGYSYYYAMDAWGQGTTVTVSS
VL: DIQMTQSTSSLSASVGDRVTITCRTSQDISNYLNWYQQKPGKAVKLLISYTSRLHSGVPSRFSGSGSGTDYTLTISSLQQEDFATYFCQQGNTLPTFGQGTKLEIK
notes: as for B1
As to B2, the “Relative KD” value in assay [1] was 0.68. Moreover, in assay [2], the Kd is 8.52 nM, the koff was found to be 0.00681 s⁻¹ and the kon worked out at 799000 M⁻¹ s⁻¹.

B3: humanized 15G8 VH3/Vk3 (antibody, IgG4, V domains shown)
VH: DVQLQGSGPGLVKPSETLSLTCSVTGYSITSGYYWNWIRQPPGKGLEWMGYISYDGSNNYNPSLKNRITISRDTSKNQFSLKLSSVTAADTATYYCAHGYSYYYAMDAWGQGTTVTVSS
VL: DIQMTQSPSSLSASVGDRVTITCRTSQDISNYLNWYQQKPGKAVKLLISYTSRLHSGVPSRFSGSGSGTDYTLTISSLQPEDFATYYCQQGNTLPTFGQGTKLEIK
notes: as for B1
As for B3, in assay [1], the “Relative KD” value was 0.72. In assay [2], the Kd was 9.03 nM, the koff is 0.00611 s⁻¹ and the kon is 677000 M⁻¹ s⁻¹.

B4: humanized 15G8 VH4/Vk3 (antibody, IgG4, V domains shown)
VH: QVQLQGSGPGLVKPSETLSLTCSVTGYSITSGYYWNWIRQPPGKGLEWMGYISYDGSNNYNPSLKNRVTISRDTSKNQFSLKLSSVTAADTATYYCAHGYSYYYAMDAWGQGTTVTVSS
VL: DIQMTQSPSSLSASVGDRVTITCRTSQDISNYLNWYQQKPGKAVKLLISYTSRLHSGVPSRFSGSGSGTDYTLTISSLQPEDFATYYCQQGNTLPTFGQGTKLEIK
notes: as for B1
As for B4, the “Relative KD” value in assay [1] was 0.75. In addition, in assay [2], the Kd turned out to be 9.51 nM, the koff worked out at 0.00843 s⁻¹ and the kon is 886000 M⁻¹ s⁻¹.

B5: humanized 15G8 VH5/Vk2 (antibody, IgG4, V domains shown)
VH: QVQLQGSGPGLVKPSETLSLTCTVTGYSITSGYYWNWIRQPPGKGLEWIGYISYDGSNNYNPSLKNRVTISRDTSKNQFSLKLSSVTAADTATYYCAHGYSYYYAMDAWGQGTTVTVSS
VL: DIQMTQSPSSLSASVGDRVTITCRTSQDISNYLNWYQQKPGKAVKLLISYTSRLHSGVPSRFSGSGSGTDYTLTISSLQPEDFATYFCQQGNTLPTFGQGTKLEIK
notes: as for B1
With B5, the “Relative KD” value in assay [1] was determined as 0.6. Moreover, in assay [2], the Kd was found to be 7.57 nM, the koff was determined as 0.00954 s⁻¹ and the kon amounted to 1.26e+06 M⁻¹ s⁻¹.

B6: humanized 15G8 VH5/Vk1 (antibody, IgG4, V domains shown)
VH: QVQLQGSGPGLVKPSETLSLTCTVTGYSITSGYYWNWIRQPPGKGLEWIGYISYDGSNNYNPSLKNRVTISRDTSKNQFSLKLSSVTAADTATYYCAHGYSYYYAMDAWGQGTTVTVSS
VL: DIQMTQSTSSLSASVGDRVTITCRTSQDISNYLNWYQQKPGKAVKLLISYTSRLHSGVPSRFSGSGSGTDYTLTISSLQQEDFATYFCQQGNTLPTFGQGTKLEIK
notes: as for B1
B6: the “Relative KD” value in assay [1] is 0.68. Moreover, in assay [2], the Kd stood at 8.55 nM, the koff was determined as 0.00994 s⁻¹ and the kon came to 1.16e+06 M⁻¹ s⁻¹.

B7: humanized 15G8 VH4/Vk1 (antibody, IgG4, V domains shown)
VH: QVQLQGSGPGLVKPSETLSLTCSVTGYSITSGYYWNWIRQPPGKGLEWMGYISYDGSNNYNPSLKNRVTISRDTSKNQFSLKLSSVTAADTATYYCAHGYSYYYAMDAWGQGTTVTVSS
VL: DIQMTQSTSSLSASVGDRVTITCRTSQDISNYLNWYQQKPGKAVKLLISYTSRLHSGVPSRFSGSGSGTDYTLTISSLQQEDFATYFCQQGNTLPTFGQGTKLEIK
notes: as for B1
As for B7, the “Relative KD” value in assay [1] was determined as 0.69. For the same molecule, in assay [2], the Kd stood at 8.66 nM, the koff turned out to be 0.00792 s⁻¹ and the kon is 915000 M⁻¹ s⁻¹.

B8: 19E3 (hybridoma-derived, murine) (antibody, V domains shown)
VH: QVQLQQSGAELARPGASVKLSCKASGYTFTSYGISWVKQRTGQGLEWVGEIYPGSGNSYYNEKFKGKATLTADKSSSTAYMELRSLTSEDSAVYFCARSNDGYPDYWGQGTTLTVSS
VL: DIQMTQSSSYLSVSLGGRVTITCKASDHINNWLAWYQQKPGNAPRLLISGATSLETGVPSRFSGSGSGKDYTLSITSLQTEDVATYYCQQYWSTPWTFGGGTKLEIK
As to B8, the “ELISA (OD)” value in assay [3] came to 0.14 OD; in assay [4] it was 2.61 OD; in assay [5] it was 0.13 OD; in assay [6], 0.11 OD. Also, the binding result in assay [3], in assay [5] and in assay [6] was “no binding” each time.

B9: 17F2 (hybridoma-derived, murine) (antibody, V domains shown)
VH: QVQLQQSDAELVKPGASVKISCKVSGYTFTDHTIHWMKQRPEQGLEWIGYIYPRDGSTKYNEKFKGKATLTADKSSSTAYMQLNSLTSEDSAVYFCARTWDYFDYWGQGTTLTVSS
VL: DIVLTQSPASLAVSLGQRATISCRASESVDSYGNSFMHWYQQKPGQPPKLLIYRASNLESGIPARFSGSGSRTDFTLTINPVEADDVATYYCQQSNEDPYTFGGGTKLEIK
For B9, the “ELISA (OD)” value in assay [3] was found to be 0.06 OD; in assay [4], 1.89 OD; in assay [5], 0.06 OD; in assay [6] it was 0.08 OD. For the same molecule, the binding result in assay [3], in assay [5] and in assay [6] was “no binding” each time.

B10: 15G8 (hybridoma-derived, murine) (antibody, V domains shown)
VH: DVQLQGSGPGLVKPSQSLSLTCSVTGYSITSGYYWNWIRQFPGNKLEWMGYISYDGSNNYNPSLKNRISITRDTSKNQFFLKLNSVTSEDTATYYCAHGYSYYYAMDCWGQGTSVTVSS
VL: DIQMTQTTSSLSASLGDRVTISCRTSQDISNYLNWYQQKPDGTVKLLISYTSRLHSGVPSRFSGSGSGTDYSLTISNLEQEDIATYFCQQGNTLPTFGSGTKLEIK
notes: also called 15G8 antibody
As for B10, the “ELISA (OD)” value amounted to 0.08 OD in assay [3], 1.11 OD in assay [4], 0.07 OD in assay [5] and 0.14 OD in assay [6]. Also, the binding result in assay [3], in assay [5] and in assay [6] was “no binding” throughout.

B11: chimeric 15G8 antibody (antibody, V domains shown)
VH: DVQLQGSGPGLVKPSQSLSLTCSVTGYSITSGYYWNWIRQFPGNKLEWMGYISYDGSNNYNPSLKNRISITRDTSKNQFFLKLNSVTSEDTATYYCAHGYSYYYAMDCWGQGTSVTVSS
VL: DIQMTQTTSSLSASLGDRVTISCRTSQDISNYLNWYQQKPDGTVKLLISYTSRLHSGVPSRFSGSGSGTDYSLTISNLEQEDIATYFCQQGNTLPTFGSGTKLEIK
notes: Chimeric form of murine 15G8
For the molecule B11, in assay [1], the “Relative KD” value was 1. Further, in assay [2], the Kd stood at 12.6 nM, the koff was 0.0102 s⁻¹ and the kon was 808000 M⁻¹ s⁻¹. For the same molecule, the “IC50 (read off the curve)” value in assay [7] was roughly 0.2 mg/L.
